Numbering of substitutions follows the chain as printed. Each block holds one binder with its values, some of them ahead of it.
Experiments:
[1] = target: T1, R271S stable mutant human PAI-1 (human, UniProt P05121 24-402); test: SPR BIAcore 2000, Antibody 08 on CM5 chip, PAI-1 protein as analyte
T1 construct: His-tagged, expressed in E. coli
T1 chain: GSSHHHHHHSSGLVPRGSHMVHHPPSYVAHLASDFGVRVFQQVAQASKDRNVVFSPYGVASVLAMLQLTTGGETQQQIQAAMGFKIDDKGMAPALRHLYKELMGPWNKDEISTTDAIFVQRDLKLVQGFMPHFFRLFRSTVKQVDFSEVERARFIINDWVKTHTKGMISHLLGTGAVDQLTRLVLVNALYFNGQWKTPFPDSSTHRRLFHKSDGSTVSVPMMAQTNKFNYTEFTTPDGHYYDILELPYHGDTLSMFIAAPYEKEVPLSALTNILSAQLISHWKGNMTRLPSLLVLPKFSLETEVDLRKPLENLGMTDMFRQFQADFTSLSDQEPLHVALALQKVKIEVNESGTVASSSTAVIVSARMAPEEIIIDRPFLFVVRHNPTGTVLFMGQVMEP

[2] = target: T2, Y220S T267K stable mutant human PAI-1 (human, UniProt P05121 24-402); test: as above
T2 construct: His-tagged, expressed in E. coli
T2 chain: T1 chain with Y240S, T287K, S291R

rat PAI-1 [3] = target: T3, rat PAI-1 (rat, UniProt P20961 24-402); test: SPR BIAcore T100, Antibody 08 on CM3 chip, PAI-1 as analyte, 25 C, n = 2
T3 construct: bought (US Biological)
T3 sequence: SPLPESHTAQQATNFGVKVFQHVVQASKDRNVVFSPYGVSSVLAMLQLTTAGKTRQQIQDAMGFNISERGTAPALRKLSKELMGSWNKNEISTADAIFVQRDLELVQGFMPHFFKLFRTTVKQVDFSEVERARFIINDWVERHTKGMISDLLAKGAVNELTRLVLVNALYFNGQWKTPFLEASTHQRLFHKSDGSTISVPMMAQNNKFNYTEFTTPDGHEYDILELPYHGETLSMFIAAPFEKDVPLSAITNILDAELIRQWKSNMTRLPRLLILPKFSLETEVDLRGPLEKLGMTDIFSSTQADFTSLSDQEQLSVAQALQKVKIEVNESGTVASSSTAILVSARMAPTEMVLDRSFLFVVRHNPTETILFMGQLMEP

[4] = target: T4, glycosylated active human PAI-1 produced by CHO cells (human, UniProt P05121 24-402, N-glycosylated (CHO-produced)); test: SPR BIAcore T100, Antibody 08 on CM3 chip, PAI-1 as analyte, 37 C, n = 2
T4 construct: also called hu glyco; human glycosylated PAI-1

cynomolgus PAI-1 [5] = target: T5, cynomolgus PAI-1 (cynomolgus, UniProt P05121 24-402 (human entry), limits assumed); test: SPR BIAcore T100, Antibody 08 on CM3 chip, PAI-1 as analyte, 37 C, n = 1
T5 construct: bacterially derived, made in house; also called cyno PAI-1

cynomolgus PAI-1 [6] = target: T5, cynomolgus PAI-1; test: SPR BIAcore T100, Antibody 08 on CM3 chip, PAI-1 as analyte, 25 C, n = 5
[7] = target: T4, glycosylated active human PAI-1 …; test: as above
[8] = target: T6, human PAI-1, active, wild-type, non-glycosylated (E. coli-derived) (human, UniProt P05121 24-402); test: SPR BIAcore, CAT-1001 amino-linked to CM3 chip, human wild-type PAI-1 as analyte, 1:1 Langmuir
T6 construct: bought (Molecular Innovations); also called wt; recombinant human PAI-1

α1-antichymotrypsin = target: T7, α1-antichymotrypsin (UniProt P01011 24-423); test: competition ELISA (DELFIA): PICK167_A01-fgl IgG1 (CAT-1001) coated on the plate, biotinylated human PAI-1, titration of the unlabelled test antigen
T7 sequence (looked up): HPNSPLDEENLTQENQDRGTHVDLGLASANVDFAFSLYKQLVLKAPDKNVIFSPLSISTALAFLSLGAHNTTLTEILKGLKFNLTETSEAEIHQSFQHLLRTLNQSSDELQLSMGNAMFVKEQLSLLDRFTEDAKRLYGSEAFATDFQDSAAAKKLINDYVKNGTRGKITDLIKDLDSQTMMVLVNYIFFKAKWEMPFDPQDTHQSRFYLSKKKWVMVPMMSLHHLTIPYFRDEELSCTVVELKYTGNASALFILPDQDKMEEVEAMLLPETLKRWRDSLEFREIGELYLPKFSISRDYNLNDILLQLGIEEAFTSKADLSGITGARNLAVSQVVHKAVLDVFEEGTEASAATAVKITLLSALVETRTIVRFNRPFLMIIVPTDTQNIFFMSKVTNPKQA

PAI-3 = target: T8, PAI-3 (UniProt P05154 26-406, limits assumed); test: as above
T8 sequence (looked up): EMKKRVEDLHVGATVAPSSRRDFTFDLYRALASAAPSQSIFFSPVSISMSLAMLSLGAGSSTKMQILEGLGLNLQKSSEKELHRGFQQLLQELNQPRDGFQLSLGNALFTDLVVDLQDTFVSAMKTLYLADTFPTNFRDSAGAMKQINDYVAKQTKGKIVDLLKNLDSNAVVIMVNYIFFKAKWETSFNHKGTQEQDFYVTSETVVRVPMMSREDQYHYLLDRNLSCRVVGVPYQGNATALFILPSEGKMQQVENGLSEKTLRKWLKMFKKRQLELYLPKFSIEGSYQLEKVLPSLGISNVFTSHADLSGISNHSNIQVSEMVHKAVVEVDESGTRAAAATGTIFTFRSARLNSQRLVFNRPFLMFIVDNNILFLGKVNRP

α1-antitrypsin = target: T9, α1-antitrypsin (UniProt P01009 25-418); test: as above
T9 construct: also called alpha-1-antitrypsin

antithrombin III = antithrombin III (UniProt P01008 33-464); test: as above
α2-antiplasmin = target: T10, α2-antiplasmin (UniProt P08697 40-491, limits assumed); test: as above
T10 sequence (looked up): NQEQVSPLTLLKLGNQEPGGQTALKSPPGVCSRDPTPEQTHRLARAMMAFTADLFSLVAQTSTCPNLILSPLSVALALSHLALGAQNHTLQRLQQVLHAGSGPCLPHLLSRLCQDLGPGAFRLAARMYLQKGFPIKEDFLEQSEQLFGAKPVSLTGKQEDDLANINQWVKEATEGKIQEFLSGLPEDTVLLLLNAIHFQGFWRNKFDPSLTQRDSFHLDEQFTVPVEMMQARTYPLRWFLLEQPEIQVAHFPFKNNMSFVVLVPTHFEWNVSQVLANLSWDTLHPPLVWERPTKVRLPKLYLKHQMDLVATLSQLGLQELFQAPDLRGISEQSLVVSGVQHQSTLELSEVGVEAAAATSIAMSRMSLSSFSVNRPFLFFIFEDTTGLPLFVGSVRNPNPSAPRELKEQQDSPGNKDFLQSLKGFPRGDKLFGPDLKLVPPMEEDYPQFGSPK

PAI-2 = PAI-2 (UniProt P05120 1-415, limits assumed); test: as above
[9] = target: T6, human PAI-1, active, wild-type, …; test: cell-based or functional assay
cynomolgus PAI-1 [10] = target: T5, cynomolgus PAI-1; test: cell-based or functional assay
rat PAI-1 [11] = target: T3, rat PAI-1; test: cell-based or functional assay

Kd [1]: 7.4 nM
Kd [2]: 0.14 nM
Kd (rat PAI-1 [3]): 0.105 nM
Kd [4]: 7 pM
Kd (cynomolgus PAI-1 [5]): 0.013 nM
Kd (cynomolgus PAI-1 [6]): 0.013 nM
Kd [7]: 6 pM
B1: Antibody 08 (as coupled to the BIAcore chip; format not stated) (antibody, V domains shown)
VH: QVQLVQSGAEVKKPGSSVKVSCKASGGTFSSYAISWVRQAPGQGLEWMGGIIPTFGTANYAQKFQGRVTITADESTSTAYMELSSLRSEDTAVYYCARERRQWLEGHFDYWGRGTLVTVSS
VL: DIQMTQSPSTLSASVGDRVTITCRASEGIYHNLAWYQQKPGKAPKLLIYKASSLASGVPSRFSGSRSGTEFTLTISSLQPDDFATYYCQQYSNYPLTFGGGTKVEIK
notes: also called candidate antibody (Antibody 08)

Kd [8]: 0.016 nM
IC50, HT1080 plasminogen activation assay [9]: 13.2 nM
IC50, PAI-1:tPA functional assay [9]: 1.65 nM
pIC50, HT1080 plasminogen activation assay [9]: 7.87
IC50, PAI-1:tPA functional assay (cynomolgus PAI-1 [10]): 0.77 nM
IC50, HT1080 plasminogen activation assay (rat PAI-1 [11]): 22.8 nM
IC50, PAI-1:tPA functional assay (rat PAI-1 [11]): 3.07 nM
pIC50, HT1080 plasminogen activation assay (rat PAI-1 [11]): 7.64
B2: PICK167_A01-fgl IgG1 (CAT-1001) (antibody, V domains shown)
VH: B1 VH
VL: DIQMTQSPSTLSASVGDRVTITCRASEGIYHNLAWYQQKPGKAPKLLIYKASSLASGVPSRFSGSRSGTEFTLTISSLQPDDFATYYCQQYSNYPLTFGGGTKVEIKR
notes: fully germlined variant, made as an IgG1 only; also called PICK67A01-fgl
binding result (α1-antichymotrypsin): no binding (tested: log M about -6.3 (about 5e-7 M))
binding result (PAI-3): no binding (tested: log M about -6.3 (about 5e-7 M))
binding result (α1-antitrypsin): no binding (tested: log M about -6.3 (about 5e-7 M))
binding result (antithrombin III): no binding (tested: log M about -6.3 (about 5e-7 M))
binding result (α2-antiplasmin): no binding (tested: log M about -6.3 (about 5e-7 M))
binding result (PAI-2): no binding (tested: log M about -6.3 (about 5e-7 M))
